Consider 13 molecules from patent US20180339041A1 (Kyowa Kirin, published 2018).

Changes are numbered by the printed parent chain. Numbers in names are those of the source. Where “and” joins values, the source holds several entries; their conditions need not be identical. Equal values may be shown once. A value given as a limit tells only on which side of the number the result lay.

The target in assay [1] is T1, C-terminally FLAG-tagged human Gas6 recombinant protein (hGas6-F) (human, UniProt Q14393 31-678, gamma-carboxylated glutamic acid residues in the Gla domain (producer cells co-express rat VKOR and human GGCX); positions not given).
T1 construct: also called human Gas6-F; human Gas6 protein
T1 sequence: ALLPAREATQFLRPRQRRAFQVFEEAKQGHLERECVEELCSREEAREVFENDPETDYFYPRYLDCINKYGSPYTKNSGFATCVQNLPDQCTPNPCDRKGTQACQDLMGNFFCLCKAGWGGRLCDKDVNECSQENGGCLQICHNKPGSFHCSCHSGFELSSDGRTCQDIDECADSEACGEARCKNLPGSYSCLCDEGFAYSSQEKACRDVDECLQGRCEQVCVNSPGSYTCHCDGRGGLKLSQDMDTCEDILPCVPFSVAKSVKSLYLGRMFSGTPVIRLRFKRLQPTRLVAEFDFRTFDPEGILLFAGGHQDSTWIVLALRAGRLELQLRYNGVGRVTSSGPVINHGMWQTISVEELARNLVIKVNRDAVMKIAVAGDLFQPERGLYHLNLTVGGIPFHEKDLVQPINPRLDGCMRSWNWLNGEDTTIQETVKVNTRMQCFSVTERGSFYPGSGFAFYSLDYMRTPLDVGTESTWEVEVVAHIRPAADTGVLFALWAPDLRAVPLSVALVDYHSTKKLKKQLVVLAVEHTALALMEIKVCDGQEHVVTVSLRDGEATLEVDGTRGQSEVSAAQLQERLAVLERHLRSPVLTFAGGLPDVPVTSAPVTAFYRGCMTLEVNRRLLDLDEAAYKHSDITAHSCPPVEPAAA
Description: SPR Biacore T100, captured antibody, Gas6 analyte, first test. The method, then: The measurement instrument used was Biacore® T100 (manufactured by GE Healthcare Japan Corp.).
(§1) An anti-human IgG antibody was immobilized on a CM5 sensor chip (manufactured by GE Healthcare Japan Corp.) using Human Antibody Capture Kit (manufactured by GE Healthcare Japan Corp.) according to the attached manual. Each test antibody adjusted to 1 μg/mL was added for 10 seconds at a flow rate of 10 μL/min to flow cells. […] The measurement was performed by the […] method. The obtained sensorgram was analyzed using Bia Evaluation Software (manufactured by GE Healthcare Japan Corp.), and the kinetic constant of each antibody was calculated.

The target of assay [2] is T1, C-terminally FLAG-tagged human Gas6 …. The assay is described as above. Here is the method: as §1
The source holds these as a separate data set.

Assay [3] has the same target. Description: SPR Biacore T100, captured antibody, Gas6 analyte, retest. Here is the method: as §1
In this retest, unlike the test mentioned above, the number of antibodies to be measured and variations in the concentration of the analyte were decreased, and the assay was conducted for a short time (within several hours), instead of sufficiently leaving standing the analyte added to the vial. […] This minimizes the adsorption of the analyte to the vial and permits more accurate calculation of ka and KD values than that in the test mentioned above.
On the technique in general: SPR reads the build-up and loss of mass on a sensor chip optically.

Assay [4] shares this target. Description: competitive ELISA, inhibition of hGas6-F binding to immobilised hAxl-hFc.
Assay [5] shares this target. Description: ELISA, hGas6-F captured by anti-FLAG, anti-human IgG-HRP. Here is the method: First, 2 μg/mL anti-FLAG antibody [Monoclonal ANTI-FLAG M2 antibody produced in mouse (manufactured by Sigma-Aldrich Co. LLC) diluted with PBS (manufactured by Nacalai Tesque, Inc.)] was dispensed at 50 μL/well to a 96-well plate for ELISA (manufactured by Nalge Nunc International), and the plate was left standing overnight at 4° C. for adsorption. After removal of the immobilization solution, 1% BSA-PBS (manufactured by Nacalai Tesque, Inc.) was added thereto at 300 μL/well, and the plate was left standing at room temperature for 1 hour for blocking and washed five times with Tween 20-PBS (manufactured by Wako Pure Chemical Industries Ltd.).
In order to reduce the backgrounds of measurement values, the diluted secondary antibody solution was mixed with 50 μg/mL of an anti-DNP mouse IgG1 antibody and incubated at room temperature for 1 hour for use.
For orientation: An ELISA detects its analyte on a solid surface through an enzyme-linked reagent.

B1: hzKM5320 LV0HV0 antibody (antibody, V domains shown)
VH: QVQLVQSGSELKKPGASVKVSCKASGYTFTNYGMNWVRQAPGQGLEWMGWINTETGEPTYSDDFKGRFVFSLDTSVSTAYLQISSLKAEDTAVYYCAREDGYYGTLDYWGQGTTVTVSS
VL: DVVMTQSPDSLAVSLGERVTINCKASQSVSNDVAWYQQKPGQSPKLLIYYASNRYTGVPDRFSGSGSGTDFTLTISSLQAEDVAVYYCQQDYSSPWTFGQGTKLEIK
notes: Humanized; variant human IgG4 constant region (EU S228P, L235E, R409K), human kappa; also called A-02
B1: in assay [1], the “fold increase of KD against the KM5320 chimeric antibody” value was at least 10 fold and the “fold increase of kd against the KM5320 chimeric antibody” value was around 6 fold. In assay [2], the Kd (usually the equilibrium constant for the complex coming apart) is below 13.8 nM; the koff – broadly, a measure of how fast the partners let go of each other – was determined as 0.000924 s⁻¹; the kon (in general, the second-order rate constant of association) was above 66800 M⁻¹ s⁻¹.

B2: hzKM5320 LV1bHV0 antibody (antibody, V domains shown)
VH: B1 VH
VL: B1 VL with L78V
notes: Humanized; variant human IgG4 constant region (EU S228P, L235E, R409K), human kappa; also called A-04
As to B2, in assay [3], the Kd came out at 16.5 nM, the koff was 0.00149 s⁻¹ and the kon turned out to be 90000 M⁻¹ s⁻¹. Further, in assay [2], the Kd was below 16 nM, the koff was determined as 0.00115 s⁻¹ and the kon was above 72000 M⁻¹ s⁻¹. Moreover, in assay [4], the IC50 (usually the concentration needed to halve the response being measured) worked out at 0.742 µg/mL. Besides, the 50% effective concentration (EC50) (usually the concentration giving half of the maximal effect) in assay [5] was 0.0191 µg/mL.

B3: hzKM5320 LV5HV2 antibody (antibody, V domains shown)
VH: B1 VH with V93T, Y95F
VL: B1 VL with V2I, L46V, L73F, L78V, Y87F
notes: Humanized; variant human IgG4 constant region (EU S228P, L235E, R409K), human kappa; also called kzKM5320 LV5HV2; A-20
For B3, in assay [3], the dissociation constant Kd is 1.29 nM, the koff stood at 0.000197 s⁻¹ and the kon worked out at 152000 M⁻¹ s⁻¹. In assay [2], the Kd is below 2.13 nM, the koff was 0.000158 s⁻¹ and the kon is above 74300 M⁻¹ s⁻¹. In assay [4], the IC50 amounted to 0.0336 µg/mL. The EC50 in assay [5] is 0.0122 µg/mL.

B4: KM5321 chimeric antibody (antibody, V domains shown)
VH: QIQLVQSGPELKKPGETVKISCRASGYTFTNYGMNWVKQAPGKGLKWMGWINTNTGEPTYTEEFKGRFAFSLETSATTAYLQINDLKNEDTATYFCARDEGWFVYWGQGTLITVSA
VL: ETTVTQSPASLSVATGEKVTIRCITSTDIDDDMNWYQQKPGEPPKLLISEGNTLRPGVPSRFSSSGYGTDFVFTIENTLSEDVADYYCLQTDSVPLTFGAGTKLELK
notes: also called KM5321 chimera; B-01
Consider B4, for which, in assay [3], the Kd stood at 0.202 nM, the koff stood at 7.66e-05 s⁻¹ and the kon was 380000 M⁻¹ s⁻¹. Besides, in assay [2], the Kd is below 1.16 nM; the koff is 0.000141 s⁻¹ and 0.000137 s⁻¹; the kon is above 121000 M⁻¹ s⁻¹. The IC50 in assay [4] came out at 0.0123 µg/mL. In addition, in assay [5], the EC50 is 0.00678 µg/mL.

B5: hzKM5321 LV0HV0 antibody (antibody, V domains shown)
VH: QVHLVQSGSELKKPGASVKISCKASGYTFTNYGMNWVRQAPGQGLEWMGWINTNTGEPTYTEEFKGRFVFSLDTSVTTSYLQISTLKAEDTAVYFCARDEGWFVYWGQGTLVTVSS
VL: ETTLTQSPSSLSASVGDRVTITCITSTDIDDDMNWYQQKPGKAPKLLISEGNTLRPGVPSRFSGSGSGTDFTLTISSLQPEDFATYYCLQTDSVPLTFGQGTKVEIK
notes: Humanized; variant human IgG4 constant region (EU S228P, L235E, R409K), human kappa; also called B-02; LV0HV0
As for B5, in assay [1], the “fold increase of KD against the KM5321 chimeric antibody” value was around 3 fold and the “fold increase of kd against the KM5321 chimeric antibody” value is around 3 fold. In addition, in assay [2], the Kd was below 3.57 nM, the koff is 0.000468 s⁻¹ and the kon is above 131000 M⁻¹ s⁻¹.

B6: hzKM5321 LV7aHV0 antibody (antibody, V domains shown)
VH: B5 VH
VL: B5 VL with A13V, V15T, A43P, G64S, L73F, L78T, T85D
notes: Humanized; variant human IgG4 constant region (EU S228P, L235E, R409K), human kappa; also called B-09; LV7aHV0
As for B6, in assay [2], the dissociation constant (Kd) is below 1.41 nM, the koff is 0.000188 s⁻¹ and the kon is above 133000 M⁻¹ s⁻¹.

B7: hzKM5321 LV9HV7 antibody (antibody, V domains shown)
VH: B5 VH with V2I, S9P, R38K, E46K, S79A, V93T, V112I
VL: B5 VL with L4V, A13V, V15T, A43P, G64S, L73F, L78T, T85D, V104L
notes: Humanized; variant human IgG4 constant region (EU S228P, L235E, R409K), human kappa; also called B-21; LV9HV7
B7: in assay [2], the Kd was below 3.33 nM, the koff came to 0.000352 s⁻¹ and the kon was above 106000 M⁻¹ s⁻¹.

B8: hzKM5321 LV7bHV0 antibody (antibody, V domains shown)
VH: B5 VH
VL: B5 VL with L4V, A13V, G64S, L73F, L78T, T85D, V104L
notes: Humanized; variant human IgG4 constant region (EU S228P, L235E, R409K), human kappa; also called B-10; LV7bHV0
Turning to B8, in assay [3], the Kd amounted to 0.403 nM, the koff was 0.000142 s⁻¹ and the kon worked out at 353000 M⁻¹ s⁻¹. Besides, in assay [2], the Kd is below 1.88 nM, the koff amounted to 0.000242 s⁻¹ and the kon is above 129000 M⁻¹ s⁻¹. Further, in assay [4], the IC50 amounted to 0.0118 µg/mL. Also, the EC50 in assay [5] is 0.00669 µg/mL.

B9: hzKM5321 LV6HV7 antibody (antibody, V domains shown)
VH: B5 VH with V2I, S9P, R38K, E46K, S79A, V93T, V112I
VL: B5 VL with A13V, V15T, A43P, G64S, L78T, T85D
notes: Humanized; variant human IgG4 constant region (EU S228P, L235E, R409K), human kappa; also called B-18; LV6HV7
Consider B9, for which, in assay [2], the Kd was below 2.59 nM; the koff is 0.000281 s⁻¹ and 0.000278 s⁻¹; the kon is above 107000 M⁻¹ s⁻¹.

B10: hzKM5321 LV9HV0 antibody (antibody, V domains shown)
VH: B5 VH
VL: B5 VL with L4V, A13V, V15T, A43P, G64S, L73F, L78T, T85D, V104L
notes: Humanized; variant human IgG4 constant region (EU S228P, L235E, R409K), human kappa; also called B-11; LV9HV0
On to B10, for which, in assay [2], the Kd was below 1.96 nM, the koff is 0.000247 s⁻¹ and the kon was above 126000 M⁻¹ s⁻¹.

B11: hzKM5321 LV6HV2b antibody (antibody, V domains shown)
VH: B5 VH with S9P, V93T
VL: B5 VL with A13V, V15T, A43P, G64S, L78T, T85D
notes: Humanized; variant human IgG4 constant region (EU S228P, L235E, R409K), human kappa; also called B-24; LV6HV2b
Turning to B11, in assay [3], the Kd was determined as 0.484 nM, the koff came out at 0.000154 s⁻¹ and the kon came out at 319000 M⁻¹ s⁻¹. Moreover, in assay [2], the Kd was below 2.33 nM, the koff is 0.000239 s⁻¹ and the kon is above 103000 M⁻¹ s⁻¹. Also, the IC50 in assay [4] worked out at 0.0126 µg/mL. In assay [5], the EC50 stood at 0.00595 µg/mL.

B12: hzKM5321 LV7bHV7 antibody (antibody, V domains shown)
VH: B5 VH with V2I, S9P, R38K, E46K, S79A, V93T, V112I
VL: B5 VL with L4V, A13V, G64S, L73F, L78T, T85D, V104L
notes: Humanized; variant human IgG4 constant region (EU S228P, L235E, R409K), human kappa; also called B-20; LV7bHV7
Regarding B12, in assay [2], the Kd is below 3.07 nM, the koff amounted to 0.000329 s⁻¹ and the kon was above 107000 M⁻¹ s⁻¹.

B13: hzKM5321 LV7aHV7 antibody (antibody, V domains shown)
VH: B5 VH with V2I, S9P, R38K, E46K, S79A, V93T, V112I
VL: B5 VL with A13V, V15T, A43P, G64S, L73F, L78T, T85D
notes: Humanized; variant human IgG4 constant region (EU S228P, L235E, R409K), human kappa; also called B-19; LV7aHV7
Take B13: in assay [2], the Kd was below 2.91 nM, the koff was found to be 0.000299 s⁻¹ and the kon was above 103000 M⁻¹ s⁻¹.
